Assay results: US10874712B2, “Methods, compounds and compositions for modulating blood brain barrier integrity and re-myelination” (University Health Network, priority 2015, dated 2020)
“Also recorded” adds a separate entry of the source.

B1: sRGMa: mouse RGMa cloned with His tag replacing the GPI-anchor, secreted soluble protein (protein)
chain: PHLRTFTDHFQTCKVQGAWPLIDNNYLNVQVTNTPVLPGSAATATSKLTIIFKNFQECVDQKVYQAEMDELPSAFADGSKNGGDKHGANSLKITEKVSGQHVEIQAKYIGTTIVVRQVGRYLTFAVRMPEEVVNAVEDRDSQGLYLCLRGCPLNQQIDFQAFRANAESPRRPAAASPSPVVPETFPYETAVAKCKEKLPVEDLYYQACVFDLLTTGDVNFTLAAYYALEDGKMLHSNKDKLHLFERTRELPGAVAAAA
modifications: left off: large carriers
notes: mouse RGMa cloned with His tag replacing the GPI-anchor, secreted soluble protein

Tests used:
b.end3 cells = experiment: In vitro BBB permeability, Dextran-FITC extravasation in Boyden chamber; format: cell-based, mouse; details: b.end3 monolayer; for extravasation of Dextran-FITC in sRGMa-treated cells: 4 h pre-treatment (10 μg/mL sRGMc, 10 μg/mL C3 Transferase or 10 μM Y27632), then RGMa 18 h
Procedure: (A) Neogenin expression was analyzed on the membrane of b.end3 cells using immunohistochemical staining and by Western blot. (B) Crystal violet staining showing the b.end3 cell monolayer, (C) Representative diagram of the boyden chamber set up and (D) BBB permeability in b.end3 cells. Serum-starved cells were incubated for 4 h with RGMa (10 μg/ml), C3 Transferase (10 μg/mL) or Y27632 (10 μM) or sRGMc (10 μg/mL) and were then incubated with sRGMa (5 μg/mL) for 18 h followed by seeding of Dextran-FITC onto the upper chamber. Extravasation was measured over a period of 60 min as described in the Examples. n=3, performed in triplicates.
b.End3 endothelial cells were used to generate an in vitro model of the human EC barrier lining the choroid plexus. Briefly, b.end3 cells were plated on polyethylene-coated 0.4 μm pore size Boyden chambers (Corning) at a density of 2×10^5 cells per well in DMEM, and were allowed to grow for 72 h to reach confluency (verified using crystal violet staining). After 72 h, cells were serum starved for 6 h and pre-treated for 4 h with 10 μg/mL sRGMc, 10 μg/mL C3 Transferase or 10 μM Y27632. RGMa was then added to the wells for 18 h. The transwells were then transferred to a new plate containing 500 μl of HBSS and 200 μl 4-KDa Dextran-FITC (25 mg/ml; Sigma-Aldrich) was added to the upper chambers. Tracer diffusion across the EC monolayer was assessed in 30 min intervals for a period of 1.5 h. FITC signal, which represented the amount of extravasation through the monolayer was analyzed with using a microplate reader.

Neogenin = target: T1, Neogenin (Homo sapiens, UniProt Q92859); experiment: In vitro competition binding assay (AP-tagged proteins); details: pre-incubation of sRGMa with Ec-Neogenin-AP; compared to BSA control
T1 construct: His-tagged proteins (2.5 μg/mL of extracellular-Neogenin or sRGMa or sRGMc) were then coated onto each well; His tag (coated format); Alkaline phosphatase (AP) fusion (solution format, Ec-Neogenin-AP); made in house
T1 sequence (Q92859 34-1105 limits assumed): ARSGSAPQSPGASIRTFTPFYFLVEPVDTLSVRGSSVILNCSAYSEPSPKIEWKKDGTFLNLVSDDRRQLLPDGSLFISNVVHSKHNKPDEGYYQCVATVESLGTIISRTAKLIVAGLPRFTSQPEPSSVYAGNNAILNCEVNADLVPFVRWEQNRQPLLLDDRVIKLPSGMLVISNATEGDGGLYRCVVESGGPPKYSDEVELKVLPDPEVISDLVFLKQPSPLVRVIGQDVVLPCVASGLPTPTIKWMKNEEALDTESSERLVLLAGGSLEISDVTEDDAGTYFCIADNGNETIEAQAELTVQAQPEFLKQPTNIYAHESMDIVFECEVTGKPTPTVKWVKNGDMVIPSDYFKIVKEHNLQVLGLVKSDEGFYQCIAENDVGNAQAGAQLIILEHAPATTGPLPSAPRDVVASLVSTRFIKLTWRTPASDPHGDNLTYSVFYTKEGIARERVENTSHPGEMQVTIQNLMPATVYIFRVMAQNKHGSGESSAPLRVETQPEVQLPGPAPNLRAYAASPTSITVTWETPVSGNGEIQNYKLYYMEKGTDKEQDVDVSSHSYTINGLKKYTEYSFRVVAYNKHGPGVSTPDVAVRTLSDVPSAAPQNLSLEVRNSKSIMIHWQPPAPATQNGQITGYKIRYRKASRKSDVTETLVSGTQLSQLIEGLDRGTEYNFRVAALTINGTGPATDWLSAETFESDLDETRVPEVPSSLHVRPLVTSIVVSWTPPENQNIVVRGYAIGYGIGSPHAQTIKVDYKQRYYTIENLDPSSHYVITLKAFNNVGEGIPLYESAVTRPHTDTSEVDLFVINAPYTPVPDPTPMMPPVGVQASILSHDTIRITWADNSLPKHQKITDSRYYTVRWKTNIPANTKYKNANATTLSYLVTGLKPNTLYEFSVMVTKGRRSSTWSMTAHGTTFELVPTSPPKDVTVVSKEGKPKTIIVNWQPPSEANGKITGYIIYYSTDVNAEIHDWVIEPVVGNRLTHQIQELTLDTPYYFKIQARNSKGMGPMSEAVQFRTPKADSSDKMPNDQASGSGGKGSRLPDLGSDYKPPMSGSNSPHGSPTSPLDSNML
Procedure: (C) Binding of Neogenin to bovine serum albumin (Neogenin+BSA), to RGMa (Neogenin+RGMa), and to RGMc (Neogenin+RGMc) in RGMa-AP and in RGMc-AP. Constructs overexpressing His-tagged sRGMa, sRGMc and the extracellular domains of Neogenin (Ec-Neogenin) were coated onto Poly-L-Lysine coated wells. Alkaline Phosphatase (AP)-tagged proteins (EC-Neogenin or RGMa or RGMc) were then added to each well and incubated at 37° C. for 1 h. Each well was washed and equilibrated with AP developing buffer (100 mM NaHCO3, 1 mM MgCl2). The reaction was initiated using AP developing buffer supplemented with p-nitrophenyl phosphate and then stopped following color development by adding 50 μl (0.1M) NaOH. The absorbance of each reaction was measured using a microplate autoreader at 405 nm as described in the Examples. (D) Binding of Neogenin-AP to bovine serum albumin (Neogenin-AP+BSA), to RGMa (Neogenin-AP+RGMa), and to RGMc (Neogenin-AP+RGMc). Competition assay was performed as described in the Examples and above but in which the constructs were reversed.
Using a 96-well microtiter plate (Corning), wells coated with 100 μl (10 μg/mL) of Poly-L-Lysine (Sigma-Aldrich) incubated at 4° C. overnight were then washed 3× with 100 μl of PBST (+0.02% Tween-20). […] The absorbance of each reaction was measured using a microplate autoreader (BioTek EL311 AutoReader) at 405 nm.

[1] = test system: Claudin 5 in b.End3 cells; experiment: Claudin 5 expression in endothelial cells by Western blot; format: cell-based, mouse; details: incubation with RGM proteins
Procedure: Cells were pretreated for 6 h with PBS, RGMc, RGMa or RGMc+RGMa. Western blotting was performed on the lysates with Claudin-5 and GAPDH antibodies.
Next, the BBB permeability was assessed by injecting mice with BSA, RGMa, RGMa plus RGMc and subsequently followed by assessment of Texas dye leakage using widefield imaging as an indication of BBB integrity. […] Thus, Claudin 5 expression following RGMa/c treatments of murine-derived brain endothelial cells (b.End3) was studied. B.En3 cells were grown up to 80% confluency and were treated with overnight incubation with RGM proteins.

[2] = test system: blood brain barrier of mice; experiment: BBB permeability, Texas red dye leakage by widefield imaging; format: in vivo, mouse; details: mice injected with RGMa alone; vs vehicle
Procedure: Mice were treated with RGMa (70 ug), RGMa (70 ug)+RGMc (70 ug), or Vehicle (1% BSA) 18 h prior to widefield imaging (100-300 ms exposure) prior to and following intravenous injection of Texas Red dye (0.5 mg) over time. […] (B) Quantification of the leakage of Texas Red dye (measured as the number of leakage sites/mm^2).
BBB integrity was assessed in mice treated with PBS (Vehicle), RGMa, RGMc, RGMa+ immunoglobulin domain of Neogenin (4Ig). Widefield imaging was then carried out under a Olympus microscope (BX6 1WI) prior to and following the injection of Texas red dye (100 uL, I.V., 5 mg/ml) using 100-300 ms exposure. Recording was performed from 0 min to 35 min following injection. Texas dye leakage was also assessed in RGMc knockout (KO) and wild type (WT) mice. The leakage of Texas-red dye was quantified by a blind experimenter measuring the number of leakage sites/mm^2. (A) Representative images of Texas red dye: PBS (Vehicle), RGMa, RGMa+RGMc and RGMa+4Ig (immunoglobulin domain of Neogenin). Quantification of the leakage of Texas Red dye in animals treated with (B) PBS (Vehicle), RGMa or RGMa+RGMc or in RGMc KO and WT mice or (C) PBS (Vehicle), RGMa, RGMa+RGMc or RGMa+4Ig.
Mice injected with BSA, RGMc, RGMa, or RGMa+RGMc. […] Leakage of Texas red dye was quantified by a blind experimenter measuring the number of leakage sites/mm^2. […]

Row | Molecule | extravasation of Dextran-FITC in sRGMa-treated cells (b.end3 cells) | reduction of binding intensity of RGMc to Neogenin (Neogenin) [fold] | reduction in Claudin 5 levels [1] [fold] | extravasation of Dextran-FITC (b.end3 cells; sRGMa alone, vs vehicle-treated wells) | BBB integrity, leakage of Texas Red dye [2]
1 | C[C@@H](N)[C@H]1CC[C@H](C(=O)Nc2ccncc2)CC1 [Y27632, reference compound] | reduced | – | – | – | –
2 | C3 Transferase [reference compound] | reduced | – | – | – | –
3 | B1 | – | 3 | 2 | increased | significantly disrupted BBB integrity; also recorded: significantly elevated leakage
